B1: mouse monoclonal antibody 20-2-5 (antibody, V domains shown)
VH: EVNLVESGGDLVKPGGSLKLSCAVSGFTFSGYAMSWVRQTPEKRLEWVASIATNGSTYYPDTVKGRFTIFRDNARNILYLQMSSLRSEDTAIYYCTRLRGFDNWGQGTTLTVSS
VL: DVLMTQIPLSLPVSLGDQASISCRSSQNIVHSNGNTYLEWYLQKSGQSPKLLIYKVFKRLSGVPDRFSGSGSGTDFTLRISRVEAEDLGVYYCFQGSHVPYTFGGGTKLEIK
B2: mouse monoclonal antibody 18-3-3 (antibody, V domains shown)
VH: EVKLVESGGGLVKPGGSLKLSCAASGFTFRSYAVSWVRQTPEKRLEWVASISTNGSTYYPDSMKGRFTISRDTARNILYLEMNSLRSEDTAMYYCARLRGFDYWGQGTPLTVSS
VL: DVLMTQTPLSLPVSLGDQASISCRSSQSIVHSNGNTYLEWYLQKPGQSPKLLIYKVSKRFSGVPDRFSGSGSGTDFTLKITRVEAEDLGVYYCFQGSHVPYTFGGGTKLEIK
B3: mouse monoclonal antibody 14-12-1 (antibody, V domains shown)
VH: EVKLVESGGDLVKPGGSLKLSCAASGFTLSDYAMSWVRQSPEERLEWVASISTNGSTYYPDSVKGRFTISRDNARNILSLQMSSLRSEDTAIYYCTRLRGFDNWGQGTLLTVSS
VL: DVLMTQTPLSLPVSLGDQASISCRSSQNIVHSNGNTYLEWYLQKSGQSPKLLMYKVSKRLSGVPDRFSGRGSGTDFTLKISRVEAEDLGVYYCFQGSHVPYTFGGGTKLEIK
B4: mouse monoclonal antibody 6-3-8 (antibody, V domains shown)
VH: EVKLVEFGGGLVEPRGSLKLSCAASGFTFSTYAMSWVRQTPEKRLEWVASIASNGSTYYPDSVRGRFTISRDNARNILYLQMSSLRSEDTAMYYCSRLRGFDYWGQGSTLTVSS
VL: DVLMTQIPLSLPVSLGDQASISCRSSQSIVHSNGNTYLEWYLQKPGQSPSLLIYKVFKRLSGVPDRFSGSGSGTEFTLKINRVEAEDLGVYYCFQGSHVPYTFGGGTKLEIK
B5: mouse monoclonal antibody 16-5-4 (antibody, V domains shown)
VH: EVKLVESGGDLVKPGGSLKLSCAASGFTFNTYAMSWVRQTPEKRLEWVASISSNGSTYHPESVKGRFTISRDIARNILNLQMSSLRSEDTAIYYCSRLRGFDYWGQGTTLTVSS
VL: DVLMTQTPLSLPVSLGDQASISCRSSQSIVHSNGNTYLEWYLQKPGQSPKPLIYKVFKRFSGVPDRFSGSGSGTDFTLKISRVEAEDLGVYYCFQGSHVPYTFGGGTKLEIK
B6: mouse monoclonal antibody 1-10-4 (antibody, V domains shown)
VH: EVKLVESGGDLVKPGGSLKLSCAVSGFSLNTYAMSWVRQTPEQRLEWVASISTNGSTYHSDSVKGRFTISRYNARNILYLQMSSLRSEDSAIYYCTRLRGFDYWGQGTTLTVSS
VL: DILMTQTPLSLSVSLGDQASISCRSSQNIVHSNGNTYLEWYLQKPGQSPKPLIYKLSKRFSGVPDRFSGSGSGTYFTLKISRVEAEDLGVYYCFQGSHVPYTFGGGTKLEIK
B7: mouse monoclonal antibody 5-10-5 (antibody, V domains shown)
VH: DVQLQESGPGLVKPSQSLSLTCTVTGFSITSDYAWNWIRQFPGNKLEWMGYISYKYGTRYNPSLKGRISITRDTSKNQFFLQLNSLTTEDTAIYYCARRGTDGYGFAYWGQGTLVTVSA
VL: DIVLTQSPASLGVSLGQRATISCRASESVSSSGYSYIHWYQQRPGQPPKLLIFLASNLESGVPARFSGSGSGTDFTLNIHPVEEEDAATYYCQHSRELPLTFGAGTKLELK

We go through 7 molecules from patent US20160202245A1 (MERZ PHARMA, published 2016).

For the test, the target named is T1, non-cleaved SNAP-25206 (UniProt P60880 1-206).
T1 construct: range 1-206
As to the kind of experiment: ELISA and Western blots.
On to B1, for which the binding result was “no binding”. With B2 the entry was “no binding”.

B3: the binding result was “no binding”. On to B4, for which the binding result is “no binding”. As to B5, the binding result is on record as “no binding”. Regarding B6, the binding result is “no binding”. With B7 the entry was “no binding”.
